What was measured:
MLE dsRBD1,2 [1] = molecular target: T1, MLE dsRBD1,2 (UniProt P24785 1-257); experiment: NMR titration; severe line broadening; Filter binding: 20 mM HEPES/NaOH pH 8.0, 150 mM NaCl, 5 mM MgCl2, on ice; ITC: 10 mM HEPES pH 8.0, 75 mM NaCl, 2.5 mM MgCl2, 1 mM b-mercaptoethanol, 20 C; NMR:; details: protein: recombinant, tags: N-terminal His6 removed by TEV
MLE dsRBD2 [2] = molecular target: T2, MLE dsRBD2 (UniProt P24785 155-257); experiment: ITC; n=0.93; Filter binding: 20 mM HEPES/NaOH pH 8.0, 150 mM NaCl, 5 mM MgCl2, on ice; ITC: 10 mM HEPES pH 8.0, 75 mM NaCl, 2.5 mM MgCl2, 1 mM b-mercaptoethanol, 20 C; NMR:; details: protein: recombinant; tags: N-terminal His6 removed by TEV; hairpin
MLE dsRBD1,2 [3] = molecular target: T1, MLE dsRBD1,2; experiment: ITC; n=0.95; Filter binding: 20 mM HEPES/NaOH pH 8.0, 150 mM NaCl, 5 mM MgCl2, on ice; ITC: 10 mM HEPES pH 8.0, 75 mM NaCl, 2.5 mM MgCl2, 1 mM b-mercaptoethanol, 20 C; NMR:; details: protein: recombinant; tags: N-terminal His6 removed by TEV; hairpin
MLE dsRBD1,2 [4] = molecular target: T1, MLE dsRBD1,2; experiment: filter binding; 5 mM Mg2+; Filter binding: 20 mM HEPES/NaOH pH 8.0, 150 mM NaCl, 5 mM MgCl2, on ice; ITC: 10 mM HEPES pH 8.0, 75 mM NaCl, 2.5 mM MgCl2, 1 mM b-mercaptoethanol, 20 C; NMR:; details: protein: recombinant; tags: N-terminal His6 removed by TEV; hairpin
MLE dsRBD2 [5] = molecular target: T2, MLE dsRBD2; experiment: as above; details: protein: recombinant; tags: N-terminal His6 removed by TEV; hairpin
[6] = molecular target: MLE dsRBD1,2 linker deletion (UniProt P24785 1-257, del85-140); experiment: filter binding; affinity similar to dsRBD1,2; Filter binding: 20 mM HEPES/NaOH pH 8.0, 150 mM NaCl, 5 mM MgCl2, on ice; ITC: 10 mM HEPES pH 8.0, 75 mM NaCl, 2.5 mM MgCl2, 1 mM b-mercaptoethanol, 20 C; NMR:; details: protein: recombinant; tags: N-terminal His6 removed by TEV; hairpin
MLE dsRBD2 [7] = molecular target: T2, MLE dsRBD2; experiment: ITC; n=0.70; Filter binding: 20 mM HEPES/NaOH pH 8.0, 150 mM NaCl, 5 mM MgCl2, on ice; ITC: 10 mM HEPES pH 8.0, 75 mM NaCl, 2.5 mM MgCl2, 1 mM b-mercaptoethanol, 20 C; NMR:; details: protein: recombinant; tags: N-terminal His6 removed by TEV; blunt, internal A-C mismatch and G-U pairs
MLE dsRBD1,2 [8] = molecular target: T1, MLE dsRBD1,2; experiment: ITC; n=0.84; Filter binding: 20 mM HEPES/NaOH pH 8.0, 150 mM NaCl, 5 mM MgCl2, on ice; ITC: 10 mM HEPES pH 8.0, 75 mM NaCl, 2.5 mM MgCl2, 1 mM b-mercaptoethanol, 20 C; NMR:; details: protein: recombinant; tags: N-terminal His6 removed by TEV; blunt, internal A-C mismatch and G-U pairs
MLE dsRBD1 = MLE dsRBD1 (UniProt P24785 1-84); experiment: NMR titration; Filter binding: 20 mM HEPES/NaOH pH 8.0, 150 mM NaCl, 5 mM MgCl2, on ice; ITC: 10 mM HEPES pH 8.0, 75 mM NaCl, 2.5 mM MgCl2, 1 mM b-mercaptoethanol, 20 C; NMR:; details: protein: recombinant; tags: N-terminal His6 removed by TEV; blunt, internal A-C mismatch and G-U pairs
MLE dsRBD2 [9] = molecular target: T2, MLE dsRBD2; experiment: as above; details: protein: recombinant; tags: N-terminal His6 removed by TEV; blunt, internal A-C mismatch and G-U pairs
MLE dsRBD1 K53+54E = MLE dsRBD1 K53+54E (UniProt P24785 1-84, K53E;K54E); experiment: NMR titration; 1.3x RNA; Filter binding: 20 mM HEPES/NaOH pH 8.0, 150 mM NaCl, 5 mM MgCl2, on ice; ITC: 10 mM HEPES pH 8.0, 75 mM NaCl, 2.5 mM MgCl2, 1 mM b-mercaptoethanol, 20 C; NMR:; details: protein: recombinant; tags: N-terminal His6 removed by TEV; blunt, internal A-C mismatch and G-U pairs
MLE dsRBD1 K53E = MLE dsRBD1 K53E (UniProt P24785 1-84, K53E); experiment: as above; details: protein: recombinant; tags: N-terminal His6 removed by TEV; blunt, internal A-C mismatch and G-U pairs
MLE dsRBD1 K54E = MLE dsRBD1 K54E (UniProt P24785 1-84, K54E); experiment: as above; details: protein: recombinant; tags: N-terminal His6 removed by TEV; blunt, internal A-C mismatch and G-U pairs

B1: SL7 23mer duplex (dsRNA)
RNA 1: UUAAAAGACGUGUAAAAUGUUGC
RNA 2: GUAACGUUUUACGCGCCUUUUCC
B1: binds (MLE dsRBD1,2 [1]; 23 + 23 nt, terminal U-C mismatches, internal A-C mismatch).

B2: UR23mer (dsRNA)
RNA 1: UAAAGUGCUUAUAGUGCAGGUAG
RNA 2: ACCUGCACUAUAAGCACUUUAAG
B2: binds (MLE dsRBD1,2 [1]; 3' overhangs 2 nt on both ends).

GUGUAAAAUGUUGCAAUAUAUAGUAACGUUUUACGC (structured_RNA) [SL7 14merLoop] gave a Kd (MLE dsRBD2 [2]) of 5.92 ± 1.31 µM, a Kd (MLE dsRBD1,2 [3]) of 4.66 ± 0.71 µM and a Kd (MLE dsRBD1,2 [4]) of 6.8 µM. The Kd (MLE dsRBD2 [5]) was roughly 22 µM and the binding result [6] was “binds”.

B3: SL7 18mer duplex (dsRNA)
RNA 1: AGACGUGUAAAAUGUUGC
RNA 2: GUAACGUUUUACGCGCCU
Binder B3 has a Kd (MLE dsRBD2 [7]) of 2.71 ± 0.19 µM, a Kd (MLE dsRBD1,2 [8]) of 3.18 ± 0.48 µM and a Kd (MLE dsRBD1) of roughly 470 µM. The Kd (MLE dsRBD2 [9]) was roughly 33 µM, the binding result (MLE dsRBD1 K53+54E) was “no binding” and the binding result (MLE dsRBD1 K53E) was “no binding”. B3: no binding (MLE dsRBD1 K54E).

From publication PMC6486548, “Structure, dynamics and roX2-lncRNA binding of tandem double-stranded RNA binding domains dsRBD1,2 of Drosophila helicase Maleless”
